Data: IntAct's records for PubMed 22615398

Legend:
gemi_human GMNN [1] = target: gemi_human GMNN (UniProt O75496)
gemi_human GMNN [2] = target: gemi_human GMNN (UniProt O75496); remark: listed apart in the source

Sequence of gemi_human GMNN (O75496 whole entry): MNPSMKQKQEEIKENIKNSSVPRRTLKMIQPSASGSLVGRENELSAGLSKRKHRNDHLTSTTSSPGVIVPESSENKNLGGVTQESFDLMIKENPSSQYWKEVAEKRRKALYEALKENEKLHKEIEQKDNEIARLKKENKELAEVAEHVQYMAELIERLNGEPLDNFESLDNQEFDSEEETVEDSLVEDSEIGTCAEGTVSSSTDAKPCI
Sequence of Homeobox protein Hox-C9 (Homo sapiens), P31274 R234A;M245A (P31274 whole entry R234A/M245A): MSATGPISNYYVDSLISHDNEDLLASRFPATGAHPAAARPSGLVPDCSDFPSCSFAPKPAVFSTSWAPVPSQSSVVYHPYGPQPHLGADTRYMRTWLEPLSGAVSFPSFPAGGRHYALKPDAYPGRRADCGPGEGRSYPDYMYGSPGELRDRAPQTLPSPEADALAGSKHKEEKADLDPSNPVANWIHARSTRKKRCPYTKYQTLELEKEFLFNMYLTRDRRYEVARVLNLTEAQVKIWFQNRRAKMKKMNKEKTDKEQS
Sequence of Paired box protein Pax-6 (Homo sapiens), P26367 A252R;A263M (P26367 whole entry A252R/A263M): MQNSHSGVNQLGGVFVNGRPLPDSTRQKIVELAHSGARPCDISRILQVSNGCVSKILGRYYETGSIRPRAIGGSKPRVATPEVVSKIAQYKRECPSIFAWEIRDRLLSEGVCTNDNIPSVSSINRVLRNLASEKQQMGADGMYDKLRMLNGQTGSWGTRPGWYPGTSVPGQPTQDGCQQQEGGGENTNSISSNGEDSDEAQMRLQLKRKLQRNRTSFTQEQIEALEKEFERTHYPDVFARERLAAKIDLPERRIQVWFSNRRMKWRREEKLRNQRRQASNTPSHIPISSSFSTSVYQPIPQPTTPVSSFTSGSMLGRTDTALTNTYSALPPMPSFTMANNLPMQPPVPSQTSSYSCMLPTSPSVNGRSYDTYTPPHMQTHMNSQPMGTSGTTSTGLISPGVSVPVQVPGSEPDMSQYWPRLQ
Sequence of Homeobox protein Hox-C9 (Homo sapiens), P31274 R193A;K194A;K195A;R196A (P31274 whole entry R193A/K194A/K195A/R196A): as the sequence (P31274 whole entry R234A/M245A) above, with R193A, K194A, K195A, R196A, A234R, A245M counted along it

Substance | effect of a mutation on the interaction (gemi_human GMNN [1]) | effect of a mutation on the interaction (gemi_human GMNN [2])
Homeobox protein Hox-C9 (Homo sapiens), P31274 R193A;K194A;K195A;R196A | decreasing interaction strength | –
Homeobox protein Hox-C9 (Homo sapiens), P31274 R234A;M245A | decreasing interaction strength | –
Paired box protein Pax-6 (Homo sapiens), P26367 A252R;A263M | – | increasing interaction strength
